Results reported in the supplement of paper PMC10126150.
± gives the standard deviation of the averaged measurements.

Tested on: ATP
Assay: switch fluorescence ratio, 500 uM ATP over buffer (Cy3 cluster intensity, sum of 5 cycles each) (fold (ratio)); higher = stronger signal-on switching upon ATP binding; sequences stand for … in TCGTCGGCAGCGTCAGATGTGTATAAGAGACAGTTTTTTTTTTTTTTTTTTTTTTTTT…TC
Conditions: aptamer strand: ATP DNA aptamer (quencher-CACCTGGGGGAGTATTGCGGAGGAAGG + anchor), 100 nM annealed; ATP concentration: 500 uM
How it was run: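 Switching-strand clusters labelled with Cy3 on a modified Illumina MiSeq flow-cell were annealed to 100 nM quencher-labelled ATP aptamer, imaged in selection buffer, and re-imaged after 15 min with 500 uM ATP at 22 °C. This was done over five cycles with NaOH stripping and re-annealing in between. The fluorescence ratio is summed target-cycle over summed buffer-cycle Cy3 intensity per cluster, averaged per switch-domain sequence, excluding clusters outside 100-1000 RFU.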
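Further: ATP exposure 15 min at 22 °C before imaging.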

Sequence	switch fluorescence ratio
TGCAGGATGC	0.971 ± 0.027
GTGGTGGGTC	0.975 ± 0.026
TCCAGCGGGG	1.01 ± 0.047
GGTTATTAAA	0.998 ± 0.01
GCTAAATTAT	0.963 ± 0.021
TCGCATGTCT	1.11 ± 0.098
GGTCTCTTTG	0.9663 ± 0.0084
CTTGTATCGG	1 ± 0.056
CTTGTGAACG	0.993 ± 0.036
TGTTTGCTGT	1.03 ± 0.074
GCCGGGATGG	1 ± 0.031
AAGGAAAAGT	1.01 ± 0.035
TTTTTGCACC	1.04 ± 0.037
GTGTATGTTG	0.9976 ± 0.0067
TTATGAGGTG	1.08 ± 0.061
TATGAATTGT	1.014 ± 0.01
GGGGGGTATA	1 ± 0.048
TTCAATGTCA	0.99 ± 0.043
ATGATGGGGT	1.01 ± 0.06
GTTTTGGCG	1.03 ± 0.032
CTGCATCCGG	1.314 ± 0.011
ATGGGTTTGT	1.02 ± 0.021
GAAATTAGTG	1.01 ± 0.039

Sequence	switch fluorescence ratio
TTTTCTCTTA	1.0182 ± 0.00039
TGCCACGTAA	1.3 ± 0.065
CCTTGGGTTG	1.03 ± 0.032
GTGGCTCAGG	1.05 ± 0.054
AAATTGGACT	1.02 ± 0.033
CTCTGTTTAG	1.48 ± 0.53
ATCAGAGGTA	1.01 ± 0.014
TTAGGCTAAT	1.02 ± 0.025
AGCCTCGTGG	0.992 ± 0.019
ATTGCGGGCA	0.982 ± 0.035
AGTTGAATT	1.03 ± 0.046
GCATTAAGGG	1.01 ± 0.039
CGTAATGGGA	1.04 ± 0.025
TGTGGTGGCA	1 ± 0.058
CTCAGCAGGG	1.73 ± 0.17
GGCTCAACGA	1.01 ± 0.045
CGTACTCCTT	1.12 ± 0.025
GGTGGACGGG	0.974 ± 0.015
TAATTTGGGT	1 ± 0.015
GCGAGGGAAC	1.03 ± 0.015
ATGATTGTCG	0.994 ± 0.017
CGGGGAAATA	1.01 ± 0.027
CACTTGATGT	0.996 ± 0.023

Sequence	switch fluorescence ratio
CGTAGGTATG	0.983 ± 0.023
AGATTAAACA	1.02 ± 0.032
CGGGAAAATT	1.02 ± 0.025
CCTGATCGAT	1.01 ± 0.02
AGATTTTTGT	0.972 ± 0.019
ACATCCGAGT	1.05 ± 0.054
AAGAAAGTCT	0.995 ± 0.068
TGCTTTAAGT	0.9912 ± 0.0029
GGGGGTCCTC	1.001 ± 0.01
TAAGGATGGG	0.961 ± 0.032
TTATTAGTCG	1.017 ± 0.0064
TCTTTTGCTT	1.01 ± 0.032
AATGTTTGCT	1 ± 0.018
ATATTTCTAA	1.0113 ± 0.00013
AAATGTCAAA	0.986 ± 0.042
ATCTAAACTT	1.02 ± 0.035
ATTATTGGTT	1.02 ± 0.029
CAGTACCGGA	0.9935 ± 0.0044
TTAGTCCCGC	1.066 ± 0.0024
CCTGTCATGT	1.02 ± 0.013
AGGTTTTAGT	1.013 ± 0.005
AGGGCGCGCT	1.01 ± 0.034
GGGTCCTTTT	1 ± 0.021

Sequence	switch fluorescence ratio
AAGGTTTAAA	0.982 ± 0.032
GGGATCAGAA	0.999 ± 0.074
AGGTTTGCGG	1.011 ± 0.0037
CCTTATTGGG	1.05 ± 0.037
CGATGGGTTT	0.969 ± 0.0062
AAAGCGGACT	1.044 ± 0.0089
AAAAAGGGTT	1 ± 0.025
CGGGTGTGAC	1.02 ± 0.023
AAACGGGGGC	1 ± 0.085
TAGAGAGGGC	1.011 ± 0.0093
TATAGGTTTG	1.01 ± 0.042
ATTAATTTCT	1 ± 0.024
ATATTTCTGG	0.986 ± 0.018
TGAAAAAGGT	0.9993 ± 0.0021
TTGGTTAATG	1.01 ± 0.019
TTTTCTCCGA	1.2 ± 0.26
TTTGGAAGT	0.991 ± 0.028
TTCAGGAATG	1.01 ± 0.049
AAGTGATTGT	0.994 ± 0.028
AGGGTGGTTG	0.987 ± 0.058
TTTATTTTGC	1.01 ± 0.036
TTAGAGGCAG	0.967 ± 0.025
GGGCGGCCGT	1.02 ± 0.044

Sequence	switch fluorescence ratio
GGGGAGAGGG	0.984 ± 0.029
ATTTCGTCGT	1.01 ± 0.03
CGTACTTAGC	1.069 ± 0.0034
AGAGGAGTTG	1.03 ± 0.046
CGGTTAAACG	0.975 ± 0.019
TAAGGTGTTT	1.08 ± 0.076
AGCATGATGC	0.991 ± 0.037
AAGTGGTAAG	0.996 ± 0.034
AAAGTCCATA	1.01 ± 0.026
CTTATAGTGG	1.06 ± 0.058
TTGAAGGTCA	1.02 ± 0.015
TTCGAGTCCG	1.03 ± 0.06
TAGCCGTCTG	1.04 ± 0.039
TTTGAAGGGG	1.01 ± 0.035
GGTGGAGAGG	0.929 ± 0.018
CGGGGTCAAT	1.85 ± 1.2
ACCCACGGAG	1.17 ± 0.014
ATCGAAGGTC	0.999 ± 0.015
ACGGGGAAAA	1.03 ± 0.036
GATAGGGGGC	1.13 ± 0.28
TCAGTTAAGG	0.9866 ± 0.0039
ATGGCAATTC	2.51 ± 0.068
TTTTTCGAAG	0.9894 ± 0.0098

Sequence	switch fluorescence ratio
TCTGGAGTTG	1.01 ± 0.084
TCAGGGGTGT	1.08 ± 0.024
AAGGGAGGAA	1.02 ± 0.012
TGTTAGGGGA	1.01 ± 0.02
ATTGGGAGC	0.956 ± 0.015
ATGATCTCCG	1.32 ± 0.017
CGTTCTATTC	1.11 ± 0.17
GGGACAGGGG	1.21 ± 0.35
ACTGGGGGTA	1.01 ± 0.025
GGGGGTACTA	0.96 ± 0.019
GCCTGTTTTG	1 ± 0.046
ATGTGTCTGC	1.04 ± 0.035
TTCCACGAAG	0.996 ± 0.012
AAGAAATGTA	1.013 ± 0.0063
CTTGCGGTTC	1.11 ± 0.05
TTTTTCACG	1 ± 0.04
GAATTGTTGT	1 ± 0.02
TTCGGGAGGA	0.971 ± 0.038
AGGAAACTCG	1.03 ± 0.052
TTGGGTAGGG	1.01 ± 0.051
ACGTCCTGCT	1.07 ± 0.011
CATTTGGGTC	1.013 ± 0.0038
TTTTTATGTT	0.99 ± 0.032

Sequence	switch fluorescence ratio
ATAATCCTGG	0.987 ± 0.011
CATATTATGA	0.987 ± 0.012
CCGTGCGTAT	1.3 ± 0.062
GCGTAGTATT	0.9954 ± 0.0085
GGCCTTTGCT	1.02 ± 0.041
ACCTGGTCTC	1.07 ± 0.027
TTGGGGGGGG	1.01 ± 0.056
TGAGGAGAAT	0.996 ± 0.028
TTCATCATGT	1.02 ± 0.023
GAGAGGGGGC	0.931 ± 0.018
AGGTAGAAGT	1.03 ± 0.012
TCTGGTGATA	1.01 ± 0.017
AAACACGACT	1.07 ± 0.011
TGTGGCTTCC	2.25 ± 0.099
AAAAAATTGG	0.989 ± 0.035
AAACCCTGGG	1.04 ± 0.029
TAAGTAATTT	1.01 ± 0.042
ACCGCGAGGA	1.54 ± 0.57
CCGAAAATGA	1.35 ± 0.49
